# Measurements reported in FireProtDB (doi:10.1016/j.bpc.2006.10.013).
# B1: Rubredoxin wild type, P00268 (protein)
# chain: MKKYTCTVCGYIYNPEDGDPDNGVNPGTDFKDIPDDWVCPLCGVGKDQFEEVEE
# Conditions: Clostridium pasteurianum; pH 9.08; Thermal; NMR; Sodium borate 100 mM; reversible: Yes; whole UniProt chain shown
protein,measurement,value
B1,Tm,107 °C
same,heat capacity change of unfolding,0.5 kcal/mol/K
same,unfolding enthalpy (van 't Hoff),62 kcal/mol
